One substance from paper PMC2805770 can be followed below.

For this data set the following is noted: phosphorylation at S656.

Consider synapsin-I: S656A, for which the localisation_or_trafficking entry is given as “changes”.
